Reference: US20120245327

Legend:
[1] = molecular target: recombinant human collagen Type I (purified product of TT080417-1-8 strain)
[2] = molecular target: T1, recombinant human collagen Type III (purified product of TT061226-1-3 strain)
T1 chain: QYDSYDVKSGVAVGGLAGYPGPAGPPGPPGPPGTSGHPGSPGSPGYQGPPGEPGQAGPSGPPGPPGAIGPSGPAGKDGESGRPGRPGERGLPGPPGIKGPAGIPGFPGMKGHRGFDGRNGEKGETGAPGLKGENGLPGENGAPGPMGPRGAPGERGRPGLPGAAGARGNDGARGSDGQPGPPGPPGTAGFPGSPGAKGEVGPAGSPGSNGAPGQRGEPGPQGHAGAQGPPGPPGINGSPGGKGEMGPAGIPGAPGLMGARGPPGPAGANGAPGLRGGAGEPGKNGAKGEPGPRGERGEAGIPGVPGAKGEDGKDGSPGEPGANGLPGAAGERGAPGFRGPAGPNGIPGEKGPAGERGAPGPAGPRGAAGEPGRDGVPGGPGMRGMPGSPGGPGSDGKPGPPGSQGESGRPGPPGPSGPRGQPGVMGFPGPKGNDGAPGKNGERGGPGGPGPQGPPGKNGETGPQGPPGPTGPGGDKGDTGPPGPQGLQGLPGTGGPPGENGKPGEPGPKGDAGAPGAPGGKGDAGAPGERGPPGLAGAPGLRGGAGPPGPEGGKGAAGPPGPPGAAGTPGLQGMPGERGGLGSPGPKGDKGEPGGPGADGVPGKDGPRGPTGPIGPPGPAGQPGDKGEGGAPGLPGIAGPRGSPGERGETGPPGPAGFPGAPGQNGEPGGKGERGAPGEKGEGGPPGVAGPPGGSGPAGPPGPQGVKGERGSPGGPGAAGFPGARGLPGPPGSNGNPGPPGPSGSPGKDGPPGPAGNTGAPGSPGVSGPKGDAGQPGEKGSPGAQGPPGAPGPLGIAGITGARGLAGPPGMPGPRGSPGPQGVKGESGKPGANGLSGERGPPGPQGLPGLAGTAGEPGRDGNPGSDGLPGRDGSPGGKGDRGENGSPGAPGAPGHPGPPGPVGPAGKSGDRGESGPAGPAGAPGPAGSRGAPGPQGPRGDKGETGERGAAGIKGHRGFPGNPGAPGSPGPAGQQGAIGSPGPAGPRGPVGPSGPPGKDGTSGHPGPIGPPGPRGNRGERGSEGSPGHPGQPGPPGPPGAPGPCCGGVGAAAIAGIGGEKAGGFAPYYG

recombinant human collagen Type I (purified product of TT080417-1-8 strain), sequence (chain, as listed by the source, chain 1 of 2): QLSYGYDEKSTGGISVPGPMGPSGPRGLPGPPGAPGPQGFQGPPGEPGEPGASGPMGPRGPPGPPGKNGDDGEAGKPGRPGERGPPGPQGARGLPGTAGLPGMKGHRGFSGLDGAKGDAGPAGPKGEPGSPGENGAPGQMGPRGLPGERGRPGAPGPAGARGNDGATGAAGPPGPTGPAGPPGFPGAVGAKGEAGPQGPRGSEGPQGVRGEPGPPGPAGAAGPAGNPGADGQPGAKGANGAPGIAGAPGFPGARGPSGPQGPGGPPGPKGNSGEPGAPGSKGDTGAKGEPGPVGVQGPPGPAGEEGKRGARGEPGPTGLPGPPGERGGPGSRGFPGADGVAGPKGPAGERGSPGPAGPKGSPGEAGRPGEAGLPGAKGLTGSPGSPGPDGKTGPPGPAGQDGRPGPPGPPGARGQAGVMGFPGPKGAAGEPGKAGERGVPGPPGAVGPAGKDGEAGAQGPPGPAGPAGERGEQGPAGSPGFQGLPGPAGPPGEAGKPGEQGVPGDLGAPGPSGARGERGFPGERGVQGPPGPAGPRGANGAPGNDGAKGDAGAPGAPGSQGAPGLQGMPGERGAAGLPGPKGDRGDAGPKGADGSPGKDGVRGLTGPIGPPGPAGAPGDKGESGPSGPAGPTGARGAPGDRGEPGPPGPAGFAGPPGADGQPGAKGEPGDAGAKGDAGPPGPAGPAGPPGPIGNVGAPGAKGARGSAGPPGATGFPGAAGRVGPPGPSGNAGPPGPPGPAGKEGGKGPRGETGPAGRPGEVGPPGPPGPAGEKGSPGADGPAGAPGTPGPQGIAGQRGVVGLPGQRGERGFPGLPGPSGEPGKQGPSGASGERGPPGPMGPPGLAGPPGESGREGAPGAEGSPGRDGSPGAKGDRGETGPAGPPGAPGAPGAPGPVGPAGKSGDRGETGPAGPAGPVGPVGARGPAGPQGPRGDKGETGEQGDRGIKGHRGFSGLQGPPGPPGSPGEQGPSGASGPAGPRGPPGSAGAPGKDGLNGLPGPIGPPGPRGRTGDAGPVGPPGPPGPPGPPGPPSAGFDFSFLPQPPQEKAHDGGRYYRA
recombinant human collagen Type I (purified product of TT080417-1-8 strain), sequence (chain, as listed by the source, chain 2 of 2): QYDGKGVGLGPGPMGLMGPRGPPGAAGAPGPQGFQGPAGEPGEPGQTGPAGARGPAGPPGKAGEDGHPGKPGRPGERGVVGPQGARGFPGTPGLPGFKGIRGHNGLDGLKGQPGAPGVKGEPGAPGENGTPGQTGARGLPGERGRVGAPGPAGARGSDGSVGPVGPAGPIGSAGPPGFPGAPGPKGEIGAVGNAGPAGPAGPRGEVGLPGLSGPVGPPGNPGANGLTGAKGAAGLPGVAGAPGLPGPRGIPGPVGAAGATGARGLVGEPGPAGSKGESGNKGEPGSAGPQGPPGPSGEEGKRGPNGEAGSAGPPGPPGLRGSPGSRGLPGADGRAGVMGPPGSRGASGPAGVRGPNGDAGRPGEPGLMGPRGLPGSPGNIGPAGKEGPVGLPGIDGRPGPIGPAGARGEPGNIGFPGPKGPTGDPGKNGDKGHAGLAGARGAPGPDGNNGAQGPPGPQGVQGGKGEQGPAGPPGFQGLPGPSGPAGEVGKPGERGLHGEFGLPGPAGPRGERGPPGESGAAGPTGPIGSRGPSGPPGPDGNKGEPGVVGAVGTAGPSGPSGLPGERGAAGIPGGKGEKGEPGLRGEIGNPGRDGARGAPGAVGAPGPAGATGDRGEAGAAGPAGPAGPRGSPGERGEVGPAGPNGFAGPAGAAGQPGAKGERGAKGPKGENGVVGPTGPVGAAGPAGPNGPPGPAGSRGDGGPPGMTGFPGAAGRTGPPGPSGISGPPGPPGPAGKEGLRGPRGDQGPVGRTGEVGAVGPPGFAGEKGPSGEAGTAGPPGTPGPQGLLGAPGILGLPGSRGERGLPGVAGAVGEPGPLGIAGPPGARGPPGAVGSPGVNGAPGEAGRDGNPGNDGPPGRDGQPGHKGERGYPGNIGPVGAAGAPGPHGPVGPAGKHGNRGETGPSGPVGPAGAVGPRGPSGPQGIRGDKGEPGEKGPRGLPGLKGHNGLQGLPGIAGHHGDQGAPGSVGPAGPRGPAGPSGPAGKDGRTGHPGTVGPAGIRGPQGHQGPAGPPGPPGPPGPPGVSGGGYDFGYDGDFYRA

B1: lysyl hydroxylase 1 (protein)
chain: KGDAKPEDNLLVLTVATKETEGFRRFKRSAQFFNYKIQALGLGEDWNVEKGTSAGGGQKVRLLKKALEKHADKEDLVILFTDSYDVLFASGPRELLKKFRQSRSQVVFSAEELIYPDRRLETKYPVVSDGKRFLGSGGFIGYAPNLSKLVAEWEGQDSDSDQLFYTKIFLDPEKREQINITLDHRCRIFQNLDGALDEVVLKFEMGHVRARNLAYDTLPVLIHGNGPTKLQLNYLGNYIPRFWTFETGCTVCDEGLRSLKGIGDEALPTVLVGVFIEQPTPFVSLFFQRLLRLHYPQKHMRLFIHNHEQHHKAQVEEFLAQHGSEYQSVKLVGPEVRMANADARNMGADLCRQDRSCTYYFSVDADVALTEPNSLRLLIQQNKNVIAPLMTRHGRLWSNFWGALSADGYYARSEDYVDIVQGRRVGVWNVPYISNIYLIKGSALRGELQSSDLFHHSKLDPDMAFCANIRQQDVFMFLTNRHTLGHLLSLDSYRTTHLHNDLWEVFSNPEDWKEKYIHQNYTKALAGKLVETPCPDVYWFPIFTEVACDELVEEMEHFGQWSLGNNKDNRIQGGYENVPTIDIHMNQIGFEREWHKFLLEYIAPMTEKLYPGYYTRAQFDLAFVVRYKPDEQPSLMPHHDASTFTINIALNRVGVDYEGGGCRFLRYNCSIRAPRKGWTLMHPGRLTHYHEGLPTTRGTRYIAVSFVDP
[1]
  composition ratio of hydroxylated lysine to the total lysine residues (amino acid analysis of purified collagen): a composition ratio of the hydroylated lysine to the total lysine residues was increased up to 50.1%
[2]
  composition ratio of hydroxylated lysine to the total lysine residues (amino acid analysis of purified collagen): a composition ratio of hydroxylated lysine to the total lysine residues was increased up to 36.9%
